Experimental data: the DeepSol protein solubility set

Test: soluble on expression in E. coli; label from the status in PepcDB or PDB records

Sequence | soluble on expression in E. coli
MNMPLMIDLTNKNVVIVGGGVVASRRAQTLNQYVEHMTVISPTITEKLQNMVDNGVVIWKEKEFEPSDIVDAYLVIAATNEPRVNEAVKKALPEHALFNNVGDASNGNVVFPSALHRDKLTISVSTDGASPKLTKSIMAELEALYPPSYSSYIDFLYTCRQKIKVLDITYNEKQQLLSQIVSQEYLNHDKQAQFLAWLDVR | not soluble
MSLQGQIDIPLDIVGRWQADQSAYELAKTYYWAKVAHLAEHNDQLAQPTYEGAHLADISEINNAPATARRMLVVSSDLFRAQQTAHAFADLMGLDVELDPRLRERSFGEWEGMTREEICEHYADDYHSWRAHTGGETKHGVESRIHTGRRGAEAVRDIVAKHHDETMPTTLLLVGHGSWIVATVAVLLDMDPDDLNNVGAMRNAFWTRMTPHTDPRNADRPTWKLEEFNQGPAIASEGHHHHHH | soluble
MAHHHHHHMCVHTFVRMNAWMCSSLSITQQNTITPPHYMQNSAFRVASLLQSRHRRGICDEGESTLAKLTQGVEMFLQHAADVPPVMLEKLSEVGDADTSTNGCSERHDDVDESMDEAEVHLSVVAGVLEPREMPKNVSTMSGLLLPTADNRKALERQKVEEAQAMLNLLAALTANNKKENTIGALTGTSEAEVDDESTTTSDESVVICYADELESDTTSSCSEADAQQEPQRSARIIELN | not soluble
MLIRYRKNYEKIAMGLLSFMPTEKDLKRLQQTMKQYETNNDWQLFLWKEGDDIVGIIGVLLRAPDVVEIQHISVNPSHRHQGIGKQMVKALKEVYPGRRLCANEWTASFFDKCHACNE | not soluble
SGDAASHEERMNNYRKRVGRLFMEQKAAQPDAVKLPSGLVFQRIARGSGKRAPAIDDKCEVHYTGRLRDGTVFDSSRERGKPTTFRPNEVIKGWTEALQLMREGDRWRLFIPYDLAYGVTGGGGMIPPYSPLEFDVELISIKDGGKGRTAEEVDEILRKAEEDREDM | soluble
MGTKQYKDGTYYAEADDFDESGWKDTVTIEVKNGKIVSVDWNAINKDGGDDKDTLSRNGGYKMVEYGGAQAEWHEQAEKVEAYLVEKQDPTDIKYKDNDGHTDAISGATIKVKKFFDLAQKALKDAEKLEHHHHHH | soluble
MLISERFGIKGRADAVRRGMPVELKTGKNLKRSPRFQDKVQAACYGLLLADDIADPPDTGTLLYTKNSALDRSEESGDLSPAKEFSIGPGFLKYVLRVRNEIAAAEYDMSVPTGFEADANCDYCFEQDTCMVVSGRLDQESKAGQLGEPLPEPERAYFERLYRAIEEERREVHAEYRKLWEQSAAERADDDRALVDLDPLGREPLDGGRWALSARRTSDAVSKIREGDRVLASDGHPTQGTAELATVRHLDDEIVVVADEPFELRRIDVYPSELGVDRQLEHHHHHH | soluble
MNIPMYIVDAFTDRPFAGNPAAVCLLPQPVGDEWMQRVAAEMNLSETAFLVPHEGGYRLRWFTPKAEVDLCGHATLASAHVLWERGERRADEAIAFFTNSGVLTAINNDGWIRLDFPNETPVRVESPPAALVGALPAEPLFIGRNRFDYLVEIGSEQEVRRLTPDFRLLQEVDARGIIVTSRSAAEEMDFVSRAFFPALGVPEDPVTGSAHCCLGPYWADKLGKTTLVGYQASARGGIVRVMVSGERVQLEGKAVTVLKGDLAAEAAFGLQPI | not soluble
MIKVAIIGAENVGKSTLMNALLGGKFSEVSETPGTTKGIIKRAFGKIKLPKTMKNPFGGADELVLIDTAGLFDPEKEIRGKVLSEEKFKELIKEIVNADVIIHMIDATKGLHRGMEKLHYMLKFRYEKPIIVVINKIDLVSREELERLRELVKKRLEQEPILLSLVTYEGFNELLKALTYYAQYVE | soluble
MPQSYIVRTMRPADVEAVLRVQAAVYPASLLESAALFQNRIEIAPATCQVALDGQDLIGYLIAYPWDAGLPPALDRSLERLPGAADTWFVHDCAVLPAAQGGGVAAALLAGGRAQARRLGLRRASLVALAPAVGYWLRHGYQPLADSDALRAKLAGYGDGARYMVRADLAG | not soluble
MNSLPVAIIGGGPVGLAAAAHLAVRDVPFVLFEGKSEVGASILEWKHVSLFSPWKYNIDRAAKSLLEKESWKEPAGDRLPTGEQLVRDYLQPLAETKALKPYIYTNAPVQSIYRKGIDKIKDHNRENTPFIIRYKQDNDQKTLRARAVIDATGTWFSPNPIGAGGVPAIGEEEAKDSIYYGIPDVKGKDRSRYEGKTILVVGSGHSAIHTLLDLAQLKEAAPSTRILWAIRRNSPNGLFGGGQEDALPARGQLGLALEALLSKQKVELISSFEMEQIDRVEGRLSVVGVQNESPISLPLVDEIVANTGARPTVDYHRDIRYQLDSKLESVPALAPLIDPNIHSCGTVRPHGEKELRQPEKNFYIAGVKSYGRAPTFLLATGYEQVRSIVASLAGSKKEAERVELQLPKTGVCKSDFLAKRSCCLEHHHHHH | soluble
MTSNDSSENLRNRLAEKMAGDITLSEKPGESLKKWRLNFEISQTDIANYLKVSPSVISDYESGRRKSPGTLIVRKIVESLLEIDLERGGKKIHTYETMLNAESGSKSIYSTYEYTLPIQLAKLVNLIEGDIVYKGIEKPLYGFSVVDSQRAILELSSHEFQKLYGWSTDRAMIFTKVSTGKSPLVAIRVTNLKPGAVVLHGLRKEEVESVAVKMAEVDRVPLVATTMDLDQIVQLLKKYSQYYARE | not soluble
MEEHYYVSIDIGSSSVKTIVGEKFHNGINVIGTGQTYTSGIKNGLIDDFDIARQAIKDTIKKASIASGVDIKEVFLKLPIIGTEVYDESNEIDFYEDTEINGSHIEKVLEGIREKNDVQETEVINVFPIRFIVDKENEVSDPKELIARHSLKVEAGVIAIQKSILINMIKCVEACGVDVLDVYSDAYNYGSILTATEKELGACVIDIGEDVTQVAFYERGELVDADSIEMAGRDITDDIAQGLNTSYETAEKVKHQYGHAFYDSASDQDIFTVEQVDSDETVQYTQKDLSDFIEARVEEIFFEVFDVLQDLGLTKVNGGFIVTGGSANLLGVKELLSDMVSEKVRIHTPSQMGIRKPEFSSAISTISSSIAFDELLDYVTINYHDNEETEEDVIDVKDKDNESKLGGFDWFKRKTNKKDTHENEVESTDEEIYQSEDNHQEHKQNHEHVQDKDKDKEESKFKKLMKSLFE | not soluble
MGSDKIHHHHHHMVSLLRRTFSEEIKEELVNVPFGSREEVISELLGFIKARGDLDVKSRHIVFSLHSFAASRRLLNLMKYLSKPVSEIIVEKSHNIKKRYIKITAEYSESFMVIEPFFDVALFVSFLRGLFLSGGSMTNPRYHYHLEINLFEEETLALTRKSLKDFFNINAGIIELRNTRKLYIKSIKDILVFLEAIGVQRKLEEIDRIVTERKVIGDVNRTVNFIEANAIRTANSTARQIRAIELIKENMGLENLPEDLRRVALVRLRNKELSLRELGKKLNLTKSQIYSKLKRIIKIAERFGDVK | not soluble
MSRLQLAIEERDEAIARAKHMEMSLKVLENINPEENDMTLQELLNRINNADTGIAIQKNGAIIVDRIYKTKECKMRITAEEMSALIEERDAALSKCKRLEQELHHVKEQNQTSANNMRHLTAENNQERALKAKLLSMQQARETAVQQYKKLEEEIQTLRVYYSLHKSLSQEENLKDQFNYTLSTYEEALKNRENIVSITQQQNEELATQLQQALTERANMELQLQHAREASQVANEKVQKLERLVDVLRKKVGTGTMRTVI | soluble
MHGADIKAIVFDLDGTLYEETEHFDYYAERVAKRLREADRRRFWDDYRAVLADCHPLRIGSMYDAKEDLIVWLEEGAVRKAFRWSGEPLTKREIETVYKKPVAVDLDRFFSIGDLWWVSSSIGRHYGLTNEDTYAAFLETREWMMGPEFKMNGAPGLAETLVELHEKAALVLMTNSPEPDSEAILWKLRLADVFHHKIFQAAKPMKTAAHLEAIRARFGVDYRQMLCVGDNIGNDIAPARRLGCRTMLVDTYGLAKQGVADFIVASTSACVPVLRRLL | not soluble
MAPWIGGKRNLARRICAILDRSPCLTYAEPFVGMAGIFLRRSSRPRAEVINDRGRDVANLFRILQRHYPQFLDTLRFQLTTRAEFERLGATDPDTLTDLERAARFLYLQRTAFGGKVSGRNFGVSSHRPGRFNLTTLEPMLEDLHSRLAGVIVECLDWADFLARYDRPETLFYLDPPYWGSETDYGRGLFQREDFGLMAERLAKLQGRFLLSINDVPQIRAIFGRFRITEVTTTYSISGSAKGNGTARPELLVSNWDIGEEG | not soluble
MGSDKIHHHHHHMYLKETLDQFASIDNILKLLKKNPSFNKHCIQERLPQKTIITSNKQRKHIYIIEEGFMKLIFDDNKPRDFSYILSKGAFPFLPVYTEDIPEHTMMVALTDIVWWKIDISFFKGMMETEDPRNYLMLHQLAETRRRFYTIAYQEKLTSRESIYYSLSTMIEFGLRISEKIVELPEFLTYQILADHANTSKSYTSKVLGHLREEGILESQRKPWRINDVQKLQKLIEMNVPLVKIQKN | not soluble
MTRAKQIILWASLSAMPLIAQASERSDDEIKALVYQAILERPEIILQAVEQLQQAEEAAQAASAHAALTENRDSLFNDPNAPVLGNPEGDVTVVEFFDYNCPYCRRAMAEVQGLVDADPNVRLVYREWPILGEGSDFAARAALAARQQGKYEAFHWALMGMSGKANETGVLRIAREVGLDTEQLQRDMEAPEVTAHIAQSMALAQKLGFNGTPSFVVEDALVPGFVEQSQLQDAVDRARKAAAK | not soluble
MGSDKIHHHHHHMSIMNSLLQQKETVVKGWLTYYVSVDDPYVFALKDDHRLMDETGFVLENLFIGMTEDLAKMNTFARELGKAQFITSLGISRILFHIRLLEEFLLDYASEINAECNNYRELYLFSIKLHQVFSSFTQHLIEGYTLATEQLVQQKENQIIKSSTKLIWLAEKVFLLPLIGKITDERAKQITETALFETCEQPVNYLIIDLSGVQFDSANIGEYIEHFFSSLKLVGVTPIITGMQPETAKIMVQANLTEQKGIKTFATLRQATKSLIKEKEARNAIK | not soluble
MEALRSAPRAAHFLPMELQSSGERSPPREGAPVGTGATAGETPSAAPSGTPLWIPPRLATLDEVTLCHNIHRYRCFIEEGTALLPPLKTDVYCNGKTSSIATRLSVGAVVDAARRALSGSPAFAFCLVRPPGHHASADTPSGFCLVNNVAIAAMQLLQDWHVKYDCGVGGSRSVPSEERDIPERPRIAIVDIDVHHGEGTQSFVEVEPQLLYLSLHRYDRGSFYPCDPAGATSYVGQHRNICNVAVDTAATDPARCEEVISDMLFARVVDDVFLPRLEQFHPNIILLSLGFDAAHGDPLGRMAVEGGFAYVVRALKRFCLQSQGTIGLVAVLEGGYSPEGVSRGVVSVAHALCYPFDDVAVVNYARLRTPKTWMELRSRLSRRMEVRTDETGGATSLSSGLSSQGLGDATSTERAIAD | not soluble
MEKKLPRIKALLTPGEVAKRSGVAVSALHFYESKGLITSIRNSGNQRRYKRDVLRYVAIIKIAQRIGIPLATIGEAFGVLPEGHTLSAKEWKQLSSQWREELDRRIHTLVALRDELDGCIGCGCLSRSDCPLRNPGDRLGEEGTGARLLEDEQN | soluble
MRPAGRSNNQVRPVTLTRNYTKHAEGSVLVEFGDTKVLCTASIEEGVPRFLKGQGQGWITAEYGMLPRSTHTRNAREAAKGKQGGRTMEIQRLIARALRAAVDLKALGEFTITLDCDVLQADGGTRTASITGACVALVDALQKLVENGKLKTNPMKGMVAAVSVGIVNGEAVCDLEYVEDSAAETDMNVVMTEDGRIIEVQGTAEGEPFTHEELLILLALARGESNPL | soluble
